Assay [1] addresses T1, endogenous IRF3 (human (endogenous in HEK293)), Q14653.
T1 chain: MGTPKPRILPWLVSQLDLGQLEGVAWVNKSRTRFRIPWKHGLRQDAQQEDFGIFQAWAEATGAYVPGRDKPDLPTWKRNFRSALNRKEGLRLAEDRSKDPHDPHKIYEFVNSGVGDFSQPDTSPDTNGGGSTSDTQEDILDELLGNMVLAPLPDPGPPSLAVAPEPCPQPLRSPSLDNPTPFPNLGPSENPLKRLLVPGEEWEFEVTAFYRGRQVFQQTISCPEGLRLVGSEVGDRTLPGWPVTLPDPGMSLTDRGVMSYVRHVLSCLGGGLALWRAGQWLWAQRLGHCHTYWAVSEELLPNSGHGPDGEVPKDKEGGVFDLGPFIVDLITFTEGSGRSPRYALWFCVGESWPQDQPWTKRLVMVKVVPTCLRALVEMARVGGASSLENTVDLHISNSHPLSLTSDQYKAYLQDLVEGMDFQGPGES
As to the kind of experiment: native gel or EMSA; S5 fractions of stimulated cells on 9% native PAGE (0.4% Doc-Na in running buffer, 4 °C); immunoblot of IRF3. The note with it: remark: other sources report otherwise.

In assay [2] the target is T2, endogenous mouse IRF3 (mouse (endogenous in peritoneal macrophages)), P70671.
T2 chain: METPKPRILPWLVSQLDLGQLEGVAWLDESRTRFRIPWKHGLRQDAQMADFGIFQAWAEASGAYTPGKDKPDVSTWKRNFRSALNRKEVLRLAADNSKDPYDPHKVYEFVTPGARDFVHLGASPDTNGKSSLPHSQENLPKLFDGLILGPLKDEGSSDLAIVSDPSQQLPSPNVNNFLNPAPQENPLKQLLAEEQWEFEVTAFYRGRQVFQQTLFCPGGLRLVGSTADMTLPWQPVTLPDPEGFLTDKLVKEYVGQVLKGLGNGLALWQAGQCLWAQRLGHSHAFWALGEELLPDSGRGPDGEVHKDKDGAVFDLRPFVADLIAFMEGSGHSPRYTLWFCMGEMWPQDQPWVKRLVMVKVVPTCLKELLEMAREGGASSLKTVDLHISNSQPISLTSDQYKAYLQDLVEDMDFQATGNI
The description is as above. The note with it: remark: other sources report otherwise.

This is an account of results in publication PMC10415273.

B1: endogenous IRF3, Q14653 1-427 (natural protein)
chain: MGTPKPRILPWLVSQLDLGQLEGVAWVNKSRTRFRIPWKHGLRQDAQQEDFGIFQAWAEATGAYVPGRDKPDLPTWKRNFRSALNRKEGLRLAEDRSKDPHDPHKIYEFVNSGVGDFSQPDTSPDTNGGGSTSDTQEDILDELLGNMVLAPLPDPGPPSLAVAPEPCPQPLRSPSLDNPTPFPNLGPSENPLKRLLVPGEEWEFEVTAFYRGRQVFQQTISCPEGLRLVGSEVGDRTLPGWPVTLPDPGMSLTDRGVMSYVRHVLSCLGGGLALWRAGQWLWAQRLGHCHTYWAVSEELLPNSGHGPDGEVPKDKEGGVFDLGPFIVDLITFTEGSGRSPRYALWFCVGESWPQDQPWTKRLVMVKVVPTCLRALVEMARVGGASSLENTVDLHISNSHPLSLTSDQYKAYLQDLVEGMDFQGPGES
B1 returned a stoichiometry N in assay [1] of 2.

B2: endogenous mouse IRF3, P70671 1-419 (natural protein)
chain: METPKPRILPWLVSQLDLGQLEGVAWLDESRTRFRIPWKHGLRQDAQMADFGIFQAWAEASGAYTPGKDKPDVSTWKRNFRSALNRKEVLRLAADNSKDPYDPHKVYEFVTPGARDFVHLGASPDTNGKSSLPHSQENLPKLFDGLILGPLKDEGSSDLAIVSDPSQQLPSPNVNNFLNPAPQENPLKQLLAEEQWEFEVTAFYRGRQVFQQTLFCPGGLRLVGSTADMTLPWQPVTLPDPEGFLTDKLVKEYVGQVLKGLGNGLALWQAGQCLWAQRLGHSHAFWALGEELLPDSGRGPDGEVHKDKDGAVFDLRPFVADLIAFMEGSGHSPRYTLWFCMGEMWPQDQPWVKRLVMVKVVPTCLKELLEMAREGGASSLKTVDLHISNSQPISLTSDQYKAYLQDLVEDMDFQATGNI
Consider B2, for which the stoichiometry N in assay [2] stood at 2.
